# From patent US20250197493A1 (Eli Lilly, published 2025)
# T1: Cynomolgus LAG-3 ECD-His (cynomolgus monkey)
# T1 construct: Bought protein (ACROBiosystems); also called ACROBiosystems Cat #LA3-C82H3
# T1 chain: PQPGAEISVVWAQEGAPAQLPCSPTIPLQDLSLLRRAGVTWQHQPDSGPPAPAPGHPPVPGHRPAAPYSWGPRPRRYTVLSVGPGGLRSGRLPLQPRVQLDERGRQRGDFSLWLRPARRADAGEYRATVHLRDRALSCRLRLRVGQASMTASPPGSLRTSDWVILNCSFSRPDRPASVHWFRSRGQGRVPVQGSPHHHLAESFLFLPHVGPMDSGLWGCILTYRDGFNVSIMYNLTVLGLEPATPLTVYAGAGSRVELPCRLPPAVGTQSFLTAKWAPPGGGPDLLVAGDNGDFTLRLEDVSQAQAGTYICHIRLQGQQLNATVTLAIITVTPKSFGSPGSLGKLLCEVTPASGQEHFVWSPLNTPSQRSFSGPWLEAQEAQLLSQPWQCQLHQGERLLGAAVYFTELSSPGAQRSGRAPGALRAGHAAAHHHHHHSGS
# T2: Human LAG-3 ECD-His (human, UniProt P18627 23-449)
# T2 construct: It was the analyte in SPR and the antigen in HDX-MS; also called human LAG-3 soluble extracellular domain (ECD); human LAG-3-His ECD
# T2 sequence: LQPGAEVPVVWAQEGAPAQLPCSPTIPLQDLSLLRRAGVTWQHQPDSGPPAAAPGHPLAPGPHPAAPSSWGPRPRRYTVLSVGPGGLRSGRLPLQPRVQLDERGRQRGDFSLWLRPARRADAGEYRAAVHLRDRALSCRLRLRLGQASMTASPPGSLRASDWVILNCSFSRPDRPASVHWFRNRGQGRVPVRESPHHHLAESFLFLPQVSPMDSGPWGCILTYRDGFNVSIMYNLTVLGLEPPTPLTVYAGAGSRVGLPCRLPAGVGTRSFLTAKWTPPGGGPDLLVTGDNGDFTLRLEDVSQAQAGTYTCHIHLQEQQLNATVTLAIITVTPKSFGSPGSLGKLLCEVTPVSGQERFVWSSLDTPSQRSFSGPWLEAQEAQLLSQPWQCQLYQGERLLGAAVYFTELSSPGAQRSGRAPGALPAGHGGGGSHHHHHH
# T3: cell membrane-expressed human LAG-3 (human, UniProt P18627 23-525)
# T3 construct: also called cell surface human LAG-3; hLAG-3
# T3 sequence: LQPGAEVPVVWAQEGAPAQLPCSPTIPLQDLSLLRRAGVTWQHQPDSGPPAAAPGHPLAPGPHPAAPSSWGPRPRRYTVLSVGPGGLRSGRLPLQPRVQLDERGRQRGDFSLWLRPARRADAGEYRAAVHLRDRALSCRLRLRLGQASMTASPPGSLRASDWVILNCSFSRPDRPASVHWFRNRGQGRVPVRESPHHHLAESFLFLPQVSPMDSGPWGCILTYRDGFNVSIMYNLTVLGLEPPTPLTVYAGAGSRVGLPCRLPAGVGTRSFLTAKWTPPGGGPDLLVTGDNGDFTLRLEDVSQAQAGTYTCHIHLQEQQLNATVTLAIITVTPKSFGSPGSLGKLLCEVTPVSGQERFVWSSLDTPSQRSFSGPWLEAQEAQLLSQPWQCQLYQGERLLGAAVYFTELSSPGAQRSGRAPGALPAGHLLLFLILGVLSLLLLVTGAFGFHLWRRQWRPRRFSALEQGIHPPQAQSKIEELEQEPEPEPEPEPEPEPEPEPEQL
# Experiments:
# [1] = molecular target: T1, Cynomolgus LAG-3 ECD-His; assay: SPR (Biacore), antibody captured, 25° C.
# Description: (§1) Surface Plasmon Resonance (SPR) at 37° C. is performed to determine the binding kinetics and affinity of LAG-3 antibodies to human LAG-3 and/or cynomolgus monkey LAG-3. A Biacore® T200 (Cytiva, Marlborough, MA) was used to measure the binding kinetics and affinities of Antibody A to human LAG-3 soluble extracellular domain (ECD) SEQ ID NO: 59) and to cynomolgus LAG-3 ECD (ACROBiosystems, Cat #LA3-C82H3; SEQ ID NO: 59) by surface plasmon resonance. Samples were diluted in HBS-EP+ (10 mM Hepes, 150 mM NaCl, 3 mM EDTA, 0.05% Tween-20, pH 7.6) (Teknova Cat #H8022) with 5 g/L of BSA (Jackson ImmunoResearch Cat #001-000-161) running buffer. PrismA Series S Sensor chip (Cat #29650263) is purchased from Cytiva.
# (§2) Binding was evaluated using multi-cycle kinetics by an antibody capture method. Each cycle was performed at either 37° C. or 25° C. at a flow rate of 10 μL/min for antibody capture to the PrismA chip and 100 μL/min for analyte association (with 120 sec contact time) and dissociation (900 sec). Each cycle consisted of the following steps: injection of antibody at 1 μg/mL in HBS-EP+ targeting Rmax values of 60 RU on flow cell, injection of analyte in HBS-EP+ (concentration range of 500 nM to 0.25 nM by two-fold serial dilution for human LAG-3-His ECD (SEQ ID NO: 59) followed by 900-second dissociation phase, and regeneration using 10 μL of 10 mM glycine hydrochloride, pH 1.5 over a 60-second contact time utilizing a 10 μL/min flow rate. All analyte concentrations were determined utilizing monomeric molecular weight (MW) values. Association rates (kₒₙ) and dissociation rates (koff) for LAG-3-ECD were evaluated using double referencing by flow-cell one reference subtraction in addition to 0 nM blank subtraction and fit to “1:1 (Langmuir) binding” model in the BIAevaluation software version 4.1. The dissociation constant (KD) was calculated from the binding kinetics according to the relationship KD=Koff/Kₒₙ. Stoichiometry=[RUₘₐₓ/RUcaptured]/[MWanalyte/MWantibody] where MW_{Antibody A} is 150 kDa. Values are reported as mean±standard deviation.
# [2] = molecular target: T2, Human LAG-3 ECD-His; assay: SPR (Biacore), antibody captured, 25° C.
# Description: as §1, §2
# [3] = molecular target: T4, cell membrane-expressed cynomolgus LAG-3 (cynomolgus monkey); assay: flow cytometry, SEB-activated cynomolgus PBMCs, CD8 T cells, percent of cells bound
# T4 construct: whole, on cells; also called cell surface cynomolgus monkey LAG-3
# Description: (§3) Cells were incubated with a 12 point, 4-fold serial dilutions of Antibody A or Isotype hG1, starting at 100 μg/mL, in PBS+2% FBS for 30 minutes at 4° C. The samples were washed and stained with 1 μg/mL Alexa Fluor 647 AffiniPure F (ab′) 2 Fragment Goat Anti-Human IgG, Fcy fragment specific (Jackson Immuno Research 109-606-098) in PBS+2% FBS for 30 minutes at 4° C. After washing thoroughly human samples were stained with CD3 Biolegend #300424, CD4 Biolegend #300512, CD8 Biolegend #301006, PD-1 Biolegend 329906, non-competing LAG3 418611 conjugated in house BN20-2739-10, Live/Dead Near IR Invitrogen L34975A, CD19 Biolegend 302218, CD33 Biolegend 366614, and CD56 Biolegend 362512 in PBS+2% FBS for 30 minutes at 4° C. Cyno samples were stained with CD3 BD 557917, CD4 BD 566910, CD8 BD 557746, PD-1 Biolegend 329906, non-competing LAG3 418611 conjugated in house BN20-2739-10, and Live/Dead Near IR Invitrogen L34975A in PBS+2% FBS for 30 minutes at 4° C. Cells were washed and processed on a BioRad ZE5 cytometer and data was analyzed with FlowJo software (BD Biosciences). Percent of cells bound by the respective antibody is quantified and graphed with Prism (Graphpad, San Diego, CA).
# [4] = molecular target: T1, Cynomolgus LAG-3 ECD-His; assay: SPR (Biacore), antibody captured, 37° C.
# Description: as §1, §2
# [5] = molecular target: T2, Human LAG-3 ECD-His; assay: SPR (Biacore), antibody captured, 37° C.
# Description: as §1, §2
# [6] = molecular target: T3, cell membrane-expressed human LAG-3; assay: flow cytometry, SEB-activated human PBMCs, CD8 T cells, percent of cells bound
# Description: as §3
# [7] = molecular target: T3, cell membrane-expressed human LAG-3; assay: flow cytometry, SEB-activated human PBMCs, CD4 T cells, percent of cells bound
# Description: as §3
# [8] = molecular target: T4, cell membrane-expressed cynomolgus LAG-3; assay: flow cytometry, SEB-activated cynomolgus PBMCs, CD4 T cells, percent of cells bound
# Description: as §3
binder,measurement,setting,value
"Antibody A (antibody, human IgG1, kappa, V domains shown, Human IgG1 heavy chain, kappa light chain; also called anti-human LAG-3 agonist antibody) VH: QVQLQESGPGLVKPSQTLSLTCTVSGGSISSGGYYWSWIRQHPGKGLEWIGYIYYSGITYYNPSLKSRVTISVDTSKNQFSLKLSSVTAADTAVYYCARSAVTTPFDYWGQGTLVTVSS VL: not shown",Kd,[1],0.038 nM
same,koff,[1],0.00015 s⁻¹
same,kon,[1],3.9e+06 M⁻¹ s⁻¹
same,Kd,[2],0.14 nM
same,koff,[2],0.0012 s⁻¹
same,kon,[2],8.3e+06 M⁻¹ s⁻¹
same,EC50,[3],0.183 µg/mL
same,Kd,[4],0.13 nM
same,koff,[4],0.00035 s⁻¹
same,kon,[4],2.7e+06 M⁻¹ s⁻¹
same,Kd,[5],0.064 nM
same,koff,[5],0.0013 s⁻¹
same,kon,[5],2.1e+07 M⁻¹ s⁻¹
same,EC50,[6],0.0155 µg/mL
same,EC50,[7],0.0156 µg/mL
same,EC50,[8],0.857 µg/mL
